{"source": "paper PMC4285798", "assay_in_all_cases": "FRET or BRET; CFP (donor) and YFP (acceptor) fusions co-expressed from pETDuet-1 in E. coli; late exponential cells washed once with 0.9% NaCl, 150 μl in a 96 well plate, Tecan Infinite M200 Pro; excitation 435 nm, emission 466-610 nm; RCY = ratio of the emission maxima of eCFP (480 nm) and eYFP (525 nm); RCY 1.1–1.3 read as enrichment/interaction, 0.9–1.1 as approximation without interaction, <0.9 as no FRET", "key": {"[1]": {"biological_target": "DivIVA-YFP (C. glutamicum)"}, "[2]": {"biological_target": "DivIVAK20R-YFP (C. glutamicum)"}, "[3]": {"biological_target": "DivIVAI18F-YFP (C. glutamicum)"}, "[4]": {"biological_target": "DivIVAI18D-YFP (C. glutamicum)"}, "[5]": {"biological_target": "DivIVAΔM-YFP (C. glutamicum)"}}, "data": [{"substance": "ParB-CFP (natural protein)", "values": [{"measurement": "RCY (CFP/YFP emission ratio, FRET)", "setting": "[1]", "result": 1.16}]}, {"substance": "RodA-CFP (natural protein)", "values": [{"measurement": "RCY (CFP/YFP emission ratio, FRET)", "setting": "[2]", "result": 1.11}, {"measurement": "RCY (CFP/YFP emission ratio, FRET)", "setting": "[3]", "result": 1.27}, {"measurement": "RCY (CFP/YFP emission ratio, FRET)", "setting": "[1]", "result": 1.15}, {"measurement": "RCY (CFP/YFP emission ratio, FRET)", "setting": "[4]", "result": 1.14}, {"measurement": "RCY (CFP/YFP emission ratio, FRET)", "setting": "[5]", "result": 1.19}]}, {"substance": "RodAE438G-CFP (natural protein)", "values": [{"measurement": "RCY (CFP/YFP emission ratio, FRET)", "setting": "[1]", "result": 1.1}]}]}
